Target: SARS-CoV-2-RBD-AVI probe (SARS-CoV-2) (UniProt P0DTC2)
Assay: SPR

Question: How did the Kd turn out when CR3022 Fab was run?
Answer: 25 nM

From doi:10.1101/2020.06.22.166033
